Assays:
[1] = molecular target: AT1G22950.1 ICU11 (Arabidopsis thaliana) (UniProt Q3ED68); assay: IP-MS rep 1
[2] = molecular target: AT1G49950.3 TRB1 (Arabidopsis thaliana) (UniProt Q8VWK4); assay: IP-MS rep 1
[3] = molecular target: AT2G23380.1 CLF (Arabidopsis thaliana) (UniProt P93831); assay: IP-MS rep 1
[4] = molecular target: AT3G10480.3 NAC050 (Arabidopsis thaliana) (UniProt Q9SQX9); assay: IP-MS rep 1
[5] = molecular target: AT3G10490.2 NAC052 (Arabidopsis thaliana) (UniProt Q9SQY0); assay: IP-MS rep 1
[6] = molecular target: AT3G18210.1 CP2 (Arabidopsis thaliana) (UniProt P0DO23); assay: IP-MS rep 1
[7] = molecular target: AT3G20740.1 FIE (Arabidopsis thaliana) (UniProt Q9LT47); assay: IP-MS rep 1
[8] = molecular target: T1, AT4G02020.1 SWN (Arabidopsis thaliana) (UniProt Q9ZSM8); assay: IP-MS rep 1
T1 sequence (looked up): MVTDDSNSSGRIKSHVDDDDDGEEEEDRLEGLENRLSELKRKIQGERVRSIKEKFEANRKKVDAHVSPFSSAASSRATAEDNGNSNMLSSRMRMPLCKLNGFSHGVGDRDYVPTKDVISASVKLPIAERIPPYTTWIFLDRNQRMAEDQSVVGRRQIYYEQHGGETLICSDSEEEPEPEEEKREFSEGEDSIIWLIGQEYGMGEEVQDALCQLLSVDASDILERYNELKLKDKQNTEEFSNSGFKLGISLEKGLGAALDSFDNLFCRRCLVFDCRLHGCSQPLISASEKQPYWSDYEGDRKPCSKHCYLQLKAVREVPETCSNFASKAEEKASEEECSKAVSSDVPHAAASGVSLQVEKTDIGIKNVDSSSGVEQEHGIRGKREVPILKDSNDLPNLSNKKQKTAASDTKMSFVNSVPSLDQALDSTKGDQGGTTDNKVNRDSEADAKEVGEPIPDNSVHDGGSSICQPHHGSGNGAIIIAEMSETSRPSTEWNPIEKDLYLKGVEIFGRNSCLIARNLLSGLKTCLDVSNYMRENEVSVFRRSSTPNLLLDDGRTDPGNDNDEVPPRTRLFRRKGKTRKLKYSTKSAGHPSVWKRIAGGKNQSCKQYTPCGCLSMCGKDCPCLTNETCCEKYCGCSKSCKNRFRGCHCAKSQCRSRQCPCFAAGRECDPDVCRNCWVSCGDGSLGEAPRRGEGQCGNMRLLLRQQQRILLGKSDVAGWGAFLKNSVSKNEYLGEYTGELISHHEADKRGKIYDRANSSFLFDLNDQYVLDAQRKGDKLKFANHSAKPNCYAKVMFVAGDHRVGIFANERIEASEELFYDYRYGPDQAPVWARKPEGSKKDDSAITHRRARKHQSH

[9] = molecular target: AT5G11530.1 EMF1 (Arabidopsis thaliana) (UniProt Q9LYD9); assay: IP-MS rep 1
[10] = molecular target: T2, AT5G17690.1 LHP1 (Arabidopsis thaliana) (UniProt Q946J8); assay: IP-MS rep 1
T2 sequence: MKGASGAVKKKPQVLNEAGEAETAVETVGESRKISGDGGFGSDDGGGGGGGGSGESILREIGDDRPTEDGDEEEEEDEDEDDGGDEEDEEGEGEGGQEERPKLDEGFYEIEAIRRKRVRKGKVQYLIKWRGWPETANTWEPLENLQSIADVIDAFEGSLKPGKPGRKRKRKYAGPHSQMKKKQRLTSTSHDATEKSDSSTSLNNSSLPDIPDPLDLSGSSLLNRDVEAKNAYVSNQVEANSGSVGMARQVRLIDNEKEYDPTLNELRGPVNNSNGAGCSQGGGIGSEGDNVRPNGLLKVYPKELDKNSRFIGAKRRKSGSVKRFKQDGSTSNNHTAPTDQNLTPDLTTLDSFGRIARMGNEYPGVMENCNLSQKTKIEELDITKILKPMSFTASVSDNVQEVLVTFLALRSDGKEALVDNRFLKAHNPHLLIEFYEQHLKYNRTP

[11] = molecular target: AT5G51230.1 EMF2 (Arabidopsis thaliana) (UniProt Q8L6Y4); assay: IP-MS rep 1
[12] = molecular target: AT5G58230.1 MSI1 (Arabidopsis thaliana) (UniProt O22467); assay: IP-MS rep 1
[13] = molecular target: AT1G22950.1 ICU11 (Arabidopsis thaliana) (UniProt Q3ED68); assay: IP-MS rep 2
[14] = molecular target: AT1G49950.3 TRB1 (Arabidopsis thaliana) (UniProt Q8VWK4); assay: IP-MS rep 2
[15] = molecular target: AT2G23380.1 CLF (Arabidopsis thaliana) (UniProt P93831); assay: IP-MS rep 2
[16] = molecular target: AT3G10480.3 NAC050 (Arabidopsis thaliana) (UniProt Q9SQX9); assay: IP-MS rep 2
[17] = molecular target: AT3G10490.2 NAC052 (Arabidopsis thaliana) (UniProt Q9SQY0); assay: IP-MS rep 2
[18] = molecular target: AT3G18210.1 CP2 (Arabidopsis thaliana) (UniProt P0DO23); assay: IP-MS rep 2
[19] = molecular target: AT3G20740.1 FIE (Arabidopsis thaliana) (UniProt Q9LT47); assay: IP-MS rep 2
[20] = molecular target: T1, AT4G02020.1 SWN (Arabidopsis thaliana); assay: IP-MS rep 2
[21] = molecular target: AT5G11530.1 EMF1 (Arabidopsis thaliana) (UniProt Q9LYD9); assay: IP-MS rep 2
[22] = molecular target: T2, AT5G17690.1 LHP1 (Arabidopsis thaliana); assay: IP-MS rep 2
[23] = molecular target: AT5G51230.1 EMF2 (Arabidopsis thaliana) (UniProt Q8L6Y4); assay: IP-MS rep 2
[24] = molecular target: AT5G58230.1 MSI1 (Arabidopsis thaliana) (UniProt O22467); assay: IP-MS rep 2
[25] = molecular target: AT1G22950.1 ICU11 (Arabidopsis thaliana) (UniProt Q3ED68); assay: X-link IP-MS
[26] = molecular target: AT1G49950.3 TRB1 (Arabidopsis thaliana) (UniProt Q8VWK4); assay: X-link IP-MS
[27] = molecular target: AT2G23380.1 CLF (Arabidopsis thaliana) (UniProt P93831); assay: X-link IP-MS
[28] = molecular target: AT3G10480.3 NAC050 (Arabidopsis thaliana) (UniProt Q9SQX9); assay: X-link IP-MS
[29] = molecular target: AT3G10490.2 NAC052 (Arabidopsis thaliana) (UniProt Q9SQY0); assay: X-link IP-MS
[30] = molecular target: AT3G18210.1 CP2 (Arabidopsis thaliana) (UniProt P0DO23); assay: X-link IP-MS
[31] = molecular target: AT3G20740.1 FIE (Arabidopsis thaliana) (UniProt Q9LT47); assay: X-link IP-MS
[32] = molecular target: T1, AT4G02020.1 SWN (Arabidopsis thaliana); assay: X-link IP-MS
[33] = molecular target: AT5G11530.1 EMF1 (Arabidopsis thaliana) (UniProt Q9LYD9); assay: X-link IP-MS
[34] = molecular target: T2, AT5G17690.1 LHP1 (Arabidopsis thaliana); assay: X-link IP-MS
[35] = molecular target: AT5G51230.1 EMF2 (Arabidopsis thaliana) (UniProt Q8L6Y4); assay: X-link IP-MS
[36] = molecular target: AT5G58230.1 MSI1 (Arabidopsis thaliana) (UniProt O22467); assay: X-link IP-MS
[37] = molecular target: AT4G20400.1 JMJ14 (Arabidopsis thaliana) (UniProt Q8GUI6); assay: IP-MS rep 1
[38] = molecular target: AT4G38130.1 HDA19 (Arabidopsis thaliana) (UniProt O22446); assay: IP-MS rep 1
[39] = molecular target: AT5G63110.1 HDA6 (Arabidopsis thaliana) (UniProt Q9FML2); assay: IP-MS rep 1
[40] = molecular target: AT4G20400.1 JMJ14 (Arabidopsis thaliana) (UniProt Q8GUI6); assay: IP-MS rep 2
[41] = molecular target: AT4G38130.1 HDA19 (Arabidopsis thaliana) (UniProt O22446); assay: IP-MS rep 2
[42] = molecular target: AT5G63110.1 HDA6 (Arabidopsis thaliana) (UniProt Q9FML2); assay: IP-MS rep 2

Chain of AT3G20740.1 FIE (Arabidopsis thaliana) (Q9LT47 whole entry): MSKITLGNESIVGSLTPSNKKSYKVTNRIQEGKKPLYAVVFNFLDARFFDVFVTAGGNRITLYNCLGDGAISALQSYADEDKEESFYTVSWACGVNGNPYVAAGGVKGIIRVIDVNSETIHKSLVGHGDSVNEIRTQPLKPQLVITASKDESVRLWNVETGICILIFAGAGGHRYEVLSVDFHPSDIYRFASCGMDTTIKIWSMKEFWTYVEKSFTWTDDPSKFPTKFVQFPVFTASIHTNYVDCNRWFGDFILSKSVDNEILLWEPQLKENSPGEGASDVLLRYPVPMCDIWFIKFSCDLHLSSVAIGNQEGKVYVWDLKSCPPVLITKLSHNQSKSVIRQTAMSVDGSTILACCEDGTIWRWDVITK
Chain of AT3G10480.3 NAC050 (Arabidopsis thaliana) (Q9SQX9 whole entry): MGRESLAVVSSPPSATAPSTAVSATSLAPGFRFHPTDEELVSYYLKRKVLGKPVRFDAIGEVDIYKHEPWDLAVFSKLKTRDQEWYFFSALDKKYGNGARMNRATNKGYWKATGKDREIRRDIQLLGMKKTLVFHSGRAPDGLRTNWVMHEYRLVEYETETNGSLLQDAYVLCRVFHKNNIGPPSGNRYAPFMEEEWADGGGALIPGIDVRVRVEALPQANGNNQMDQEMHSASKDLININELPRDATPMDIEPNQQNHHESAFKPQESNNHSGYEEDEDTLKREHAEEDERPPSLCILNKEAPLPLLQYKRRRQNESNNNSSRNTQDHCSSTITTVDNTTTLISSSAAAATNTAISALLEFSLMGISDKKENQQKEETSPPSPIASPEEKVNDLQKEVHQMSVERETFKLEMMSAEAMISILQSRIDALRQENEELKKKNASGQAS
Chain of AT1G49950.3 TRB1 (Arabidopsis thaliana) (Q8VWK4 whole entry): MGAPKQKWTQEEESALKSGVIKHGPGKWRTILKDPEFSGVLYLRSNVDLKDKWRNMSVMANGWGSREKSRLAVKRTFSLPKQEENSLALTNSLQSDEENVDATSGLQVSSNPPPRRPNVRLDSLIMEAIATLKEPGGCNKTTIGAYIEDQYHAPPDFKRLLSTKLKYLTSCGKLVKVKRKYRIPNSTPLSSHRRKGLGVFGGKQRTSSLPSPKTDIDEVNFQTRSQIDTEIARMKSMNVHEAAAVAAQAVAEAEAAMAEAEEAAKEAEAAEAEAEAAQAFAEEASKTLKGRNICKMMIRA
Chain of AT1G22950.1 ICU11 (Arabidopsis thaliana) (Q3ED68 whole entry): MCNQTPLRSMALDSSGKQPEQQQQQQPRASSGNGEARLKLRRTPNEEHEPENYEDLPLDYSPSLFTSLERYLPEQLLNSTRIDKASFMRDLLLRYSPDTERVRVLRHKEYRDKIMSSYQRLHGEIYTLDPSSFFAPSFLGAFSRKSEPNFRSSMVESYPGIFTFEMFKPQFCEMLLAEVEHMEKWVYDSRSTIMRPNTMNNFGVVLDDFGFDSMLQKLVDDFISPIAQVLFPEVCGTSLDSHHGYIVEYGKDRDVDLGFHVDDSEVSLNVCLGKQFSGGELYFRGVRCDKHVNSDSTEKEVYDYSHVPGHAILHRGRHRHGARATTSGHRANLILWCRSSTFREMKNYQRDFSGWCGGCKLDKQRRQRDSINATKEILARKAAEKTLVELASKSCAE
Chain of AT2G23380.1 CLF (Arabidopsis thaliana) (P93831 whole entry): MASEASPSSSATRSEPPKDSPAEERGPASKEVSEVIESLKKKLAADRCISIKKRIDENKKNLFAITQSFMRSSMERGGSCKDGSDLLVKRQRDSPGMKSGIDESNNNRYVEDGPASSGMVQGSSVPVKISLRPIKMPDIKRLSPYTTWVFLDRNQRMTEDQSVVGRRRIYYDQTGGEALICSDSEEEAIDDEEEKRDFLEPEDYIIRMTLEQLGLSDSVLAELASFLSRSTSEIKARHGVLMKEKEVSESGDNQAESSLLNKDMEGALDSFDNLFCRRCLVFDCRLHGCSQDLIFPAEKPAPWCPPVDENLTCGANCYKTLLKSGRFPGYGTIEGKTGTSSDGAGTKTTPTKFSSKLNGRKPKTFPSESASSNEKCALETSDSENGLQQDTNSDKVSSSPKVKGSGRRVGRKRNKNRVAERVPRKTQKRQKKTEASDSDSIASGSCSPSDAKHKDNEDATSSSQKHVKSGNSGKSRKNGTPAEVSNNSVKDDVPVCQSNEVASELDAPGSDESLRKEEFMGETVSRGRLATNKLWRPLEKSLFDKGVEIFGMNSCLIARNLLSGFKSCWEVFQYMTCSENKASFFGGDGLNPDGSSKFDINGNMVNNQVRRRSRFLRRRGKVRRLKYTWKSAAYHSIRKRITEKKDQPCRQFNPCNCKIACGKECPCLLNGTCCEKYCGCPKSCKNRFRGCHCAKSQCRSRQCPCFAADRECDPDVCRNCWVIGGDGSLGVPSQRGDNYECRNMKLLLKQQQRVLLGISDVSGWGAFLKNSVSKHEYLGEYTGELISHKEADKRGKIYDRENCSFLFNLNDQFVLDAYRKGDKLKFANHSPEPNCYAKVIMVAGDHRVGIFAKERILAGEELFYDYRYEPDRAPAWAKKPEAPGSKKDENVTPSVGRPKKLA
Chain of AT3G10490.2 NAC052 (Arabidopsis thaliana) (Q9SQY0 whole entry): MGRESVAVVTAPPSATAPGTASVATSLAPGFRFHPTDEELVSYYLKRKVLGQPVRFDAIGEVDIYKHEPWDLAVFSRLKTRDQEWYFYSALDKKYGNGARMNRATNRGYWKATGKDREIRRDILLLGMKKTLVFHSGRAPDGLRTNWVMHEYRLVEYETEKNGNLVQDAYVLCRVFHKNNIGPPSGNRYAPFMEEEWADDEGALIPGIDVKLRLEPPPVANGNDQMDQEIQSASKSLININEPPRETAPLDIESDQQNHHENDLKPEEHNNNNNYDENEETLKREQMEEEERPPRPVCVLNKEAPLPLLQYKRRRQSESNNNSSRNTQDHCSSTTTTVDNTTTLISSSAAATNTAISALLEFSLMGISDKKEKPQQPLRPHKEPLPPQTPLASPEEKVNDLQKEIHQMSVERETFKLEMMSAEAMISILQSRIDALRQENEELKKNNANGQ
Chain of AT5G58230.1 MSI1 (Arabidopsis thaliana) (O22467 whole entry): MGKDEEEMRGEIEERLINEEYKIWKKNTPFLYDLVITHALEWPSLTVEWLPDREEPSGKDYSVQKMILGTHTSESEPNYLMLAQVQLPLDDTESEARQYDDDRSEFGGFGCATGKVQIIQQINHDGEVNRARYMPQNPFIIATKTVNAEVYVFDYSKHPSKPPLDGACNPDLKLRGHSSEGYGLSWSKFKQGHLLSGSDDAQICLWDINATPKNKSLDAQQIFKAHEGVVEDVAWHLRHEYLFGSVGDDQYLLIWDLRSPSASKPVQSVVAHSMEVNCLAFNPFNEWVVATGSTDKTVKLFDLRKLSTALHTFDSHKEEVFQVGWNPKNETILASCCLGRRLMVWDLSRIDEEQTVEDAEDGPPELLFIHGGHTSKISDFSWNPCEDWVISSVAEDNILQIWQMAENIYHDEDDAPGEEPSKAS
Chain of AT5G11530.1 EMF1 (Arabidopsis thaliana) (Q9LYD9 whole entry): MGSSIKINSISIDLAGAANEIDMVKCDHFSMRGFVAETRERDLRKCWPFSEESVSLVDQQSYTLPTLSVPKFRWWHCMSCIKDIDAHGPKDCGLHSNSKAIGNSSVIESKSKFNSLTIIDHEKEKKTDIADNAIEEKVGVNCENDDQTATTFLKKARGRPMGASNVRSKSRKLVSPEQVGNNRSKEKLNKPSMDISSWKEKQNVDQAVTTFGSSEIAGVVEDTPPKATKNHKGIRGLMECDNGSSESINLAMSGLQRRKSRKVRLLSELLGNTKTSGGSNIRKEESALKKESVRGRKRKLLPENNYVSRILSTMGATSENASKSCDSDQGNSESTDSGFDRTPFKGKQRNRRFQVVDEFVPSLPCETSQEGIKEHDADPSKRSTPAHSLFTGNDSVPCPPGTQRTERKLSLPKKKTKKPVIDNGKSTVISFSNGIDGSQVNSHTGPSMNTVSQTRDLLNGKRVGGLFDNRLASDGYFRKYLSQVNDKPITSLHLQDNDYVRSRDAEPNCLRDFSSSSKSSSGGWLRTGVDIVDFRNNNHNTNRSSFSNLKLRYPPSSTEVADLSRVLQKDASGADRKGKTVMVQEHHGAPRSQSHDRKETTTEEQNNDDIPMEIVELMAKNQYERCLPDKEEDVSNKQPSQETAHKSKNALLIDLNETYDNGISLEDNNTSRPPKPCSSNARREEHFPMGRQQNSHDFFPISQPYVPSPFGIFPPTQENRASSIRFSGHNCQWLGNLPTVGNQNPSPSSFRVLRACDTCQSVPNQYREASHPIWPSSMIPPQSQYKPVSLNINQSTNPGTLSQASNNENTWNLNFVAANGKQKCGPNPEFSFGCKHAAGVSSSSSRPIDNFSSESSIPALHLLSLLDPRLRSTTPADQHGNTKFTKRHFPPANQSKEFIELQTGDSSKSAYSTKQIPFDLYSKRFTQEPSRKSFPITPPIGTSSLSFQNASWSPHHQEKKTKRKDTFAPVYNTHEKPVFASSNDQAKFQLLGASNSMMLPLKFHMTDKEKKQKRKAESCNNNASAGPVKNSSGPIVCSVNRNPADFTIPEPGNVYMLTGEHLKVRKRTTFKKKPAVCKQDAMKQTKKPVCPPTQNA
Chain of AT3G18210.1 CP2 (Arabidopsis thaliana) (P0DO23 whole entry): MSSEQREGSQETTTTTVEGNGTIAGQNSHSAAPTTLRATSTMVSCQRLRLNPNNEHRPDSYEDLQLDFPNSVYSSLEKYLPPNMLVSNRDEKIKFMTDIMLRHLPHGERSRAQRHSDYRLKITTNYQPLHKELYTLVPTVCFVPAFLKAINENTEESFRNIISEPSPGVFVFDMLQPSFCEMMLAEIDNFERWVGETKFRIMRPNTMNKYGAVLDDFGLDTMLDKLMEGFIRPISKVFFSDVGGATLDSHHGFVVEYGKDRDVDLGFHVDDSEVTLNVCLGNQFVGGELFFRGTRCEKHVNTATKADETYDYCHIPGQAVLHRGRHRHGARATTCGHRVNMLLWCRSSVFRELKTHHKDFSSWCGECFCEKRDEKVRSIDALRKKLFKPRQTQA

Substance | IP-MS count [1] | IP-MS count [3] | IP-MS count [5] | IP-MS count [7] | IP-MS count [8] | IP-MS count [9] | IP-MS count [10] | IP-MS count [11] | IP-MS count [12] | IP-MS count [13] | IP-MS count [15] | IP-MS count [17] | IP-MS count [19] | IP-MS count [20] | IP-MS count [21] | IP-MS count [22] | IP-MS count [23] | IP-MS count [24] | further results
FLAG-TRB3 (from UniProt Q9M2X3 1-295) | 79 | 15 | 24 | 34 | 16 | 81 | 15 | 23 | 37 | 73 | 19 | 28 | 41 | 24 | 83 | 19 | 23 | 35 | IP-MS count [2]: 0; IP-MS count [4]: 5; IP-MS count [6]: 38; IP-MS count [14]: 0; IP-MS count [16]: 4; IP-MS count [18]: 31; IP-MS count [25]: 37; IP-MS count [26]: 9; IP-MS count [27]: 19; IP-MS count [28]: 39; IP-MS count [29]: 59; IP-MS count [30]: 12; IP-MS count [31]: 34; IP-MS count [32]: 36; IP-MS count [33]: 104; IP-MS count [34]: 18; IP-MS count [35]: 29; IP-MS count [36]: 31
TRBIP1 (bait of the TRBIP1 IP-MS) | 32 | 7 | 10 | 22 | 15 | 36 | 14 | 10 | 20 | 19 | 0 | 2 | 3 | 6 | 7 | 8 | 3 | 9 | IP-MS count [37]: 7; IP-MS count [38]: 4; IP-MS count [39]: 7; IP-MS count [40]: 0; IP-MS count [41]: 3; IP-MS count [42]: 5
